Consider eight molecules from article PMC2894786, “Fibronectin-binding protein B variation in Staphylococcus aureus” (BMC Microbiology, 2010).

Test [1] addresses human aortic elastin (human) (UniProt P15502). The test is described as follows: ELISA; solid-phase binding: elastin (50 μg/ml), fibrinogen (10 μg/ml) or fibronectin (10 μg/ml) coated on microtitre wells; purified rFnBPB N23 in PBS added, 37°C for 2 hr; bound protein detected with anti-hexahistidine monoclonal antibody 7E8.
The target in another test is human fibrinogen (human) (UniProt P02671). The test is described as above.
In test [2] the target is human fibronectin (human). The test is described as above.
Test [3] concerns the target human fibronectin (human). The experiment in a line: SPR; BIAcore X100; fibrinogen, elastin or fibronectin amine-coupled to CM5 chips; rN23 type I passed over at 0.15 μM to 10 μM in PBS; blank flow cell subtracted; equilibrium dissociation constants. In general terms: Surface plasmon resonance follows binding to a sensor surface in real time, without labels.
Test [4] deals with T1, human aortic elastin (human, UniProt P15502 27-786).
T1 construct: elastin from human aorta; Tissue elastin is a cross-linked material; The vendor named for the ELISA differs from that named for the SPR; source: bought: Elastin Products Company (ELISA); Enzyme Research Laboratories (SPR)
T1 sequence: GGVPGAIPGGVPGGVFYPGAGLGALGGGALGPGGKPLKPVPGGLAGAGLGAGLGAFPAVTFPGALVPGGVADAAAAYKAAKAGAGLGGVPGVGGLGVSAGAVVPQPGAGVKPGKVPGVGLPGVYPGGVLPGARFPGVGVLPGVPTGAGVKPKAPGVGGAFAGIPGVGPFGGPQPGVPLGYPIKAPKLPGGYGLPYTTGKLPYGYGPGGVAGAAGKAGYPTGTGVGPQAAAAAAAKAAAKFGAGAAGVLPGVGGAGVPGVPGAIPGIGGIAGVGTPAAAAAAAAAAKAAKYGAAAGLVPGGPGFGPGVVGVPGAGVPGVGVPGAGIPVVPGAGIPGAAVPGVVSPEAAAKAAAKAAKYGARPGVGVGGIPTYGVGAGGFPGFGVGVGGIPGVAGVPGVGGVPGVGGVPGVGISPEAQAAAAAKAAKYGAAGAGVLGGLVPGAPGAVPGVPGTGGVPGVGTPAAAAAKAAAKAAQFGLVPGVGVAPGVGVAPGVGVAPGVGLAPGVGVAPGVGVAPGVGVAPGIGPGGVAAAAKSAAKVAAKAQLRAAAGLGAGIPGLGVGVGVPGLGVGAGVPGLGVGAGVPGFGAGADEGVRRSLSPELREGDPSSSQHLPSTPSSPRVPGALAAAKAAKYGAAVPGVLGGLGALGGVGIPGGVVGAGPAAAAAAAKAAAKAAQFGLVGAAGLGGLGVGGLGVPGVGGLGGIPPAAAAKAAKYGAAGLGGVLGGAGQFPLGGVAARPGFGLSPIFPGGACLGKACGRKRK
The description is as above. The conditions noted are these: both partners purified.

Test [5] deals with T2, human fibrinogen (human, UniProt P02671-2 20-644; P02675 31-491; P02679-2 27-437).
T2 construct: fibrinogen alpha chain, human; fibrinogen beta chain, human; fibrinogen gamma chain, human; source: bought: Calbiochem; copies: + +
T2 sequence 1: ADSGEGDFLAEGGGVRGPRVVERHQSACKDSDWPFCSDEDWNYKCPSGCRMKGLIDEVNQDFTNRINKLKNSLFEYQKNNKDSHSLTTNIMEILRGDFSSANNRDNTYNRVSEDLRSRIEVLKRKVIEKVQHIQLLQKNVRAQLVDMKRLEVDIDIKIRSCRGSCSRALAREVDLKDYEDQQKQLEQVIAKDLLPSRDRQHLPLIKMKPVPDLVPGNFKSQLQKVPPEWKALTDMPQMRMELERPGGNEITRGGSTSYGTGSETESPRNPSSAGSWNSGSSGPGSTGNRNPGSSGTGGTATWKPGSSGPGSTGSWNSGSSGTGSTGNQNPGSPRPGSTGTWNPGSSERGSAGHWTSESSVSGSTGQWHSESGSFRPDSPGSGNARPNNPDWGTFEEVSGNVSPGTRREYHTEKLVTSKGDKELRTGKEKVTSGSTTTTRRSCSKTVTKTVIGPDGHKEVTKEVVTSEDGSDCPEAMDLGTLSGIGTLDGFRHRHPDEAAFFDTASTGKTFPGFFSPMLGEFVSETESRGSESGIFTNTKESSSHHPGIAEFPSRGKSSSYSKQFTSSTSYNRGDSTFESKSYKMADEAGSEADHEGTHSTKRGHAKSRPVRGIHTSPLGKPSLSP
T2 sequence 2: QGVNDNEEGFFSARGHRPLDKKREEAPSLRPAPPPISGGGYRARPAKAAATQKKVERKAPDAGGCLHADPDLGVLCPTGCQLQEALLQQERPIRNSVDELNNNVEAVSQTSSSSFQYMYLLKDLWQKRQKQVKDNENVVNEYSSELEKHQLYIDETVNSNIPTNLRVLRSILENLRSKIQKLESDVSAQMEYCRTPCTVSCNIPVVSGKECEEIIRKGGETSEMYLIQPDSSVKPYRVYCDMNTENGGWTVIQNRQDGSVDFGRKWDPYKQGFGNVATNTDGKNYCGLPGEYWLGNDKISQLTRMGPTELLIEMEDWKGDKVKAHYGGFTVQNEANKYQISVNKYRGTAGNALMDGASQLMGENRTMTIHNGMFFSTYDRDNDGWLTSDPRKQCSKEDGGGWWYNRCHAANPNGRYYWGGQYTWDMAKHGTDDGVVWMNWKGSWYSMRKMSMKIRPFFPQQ
T2 sequence 3: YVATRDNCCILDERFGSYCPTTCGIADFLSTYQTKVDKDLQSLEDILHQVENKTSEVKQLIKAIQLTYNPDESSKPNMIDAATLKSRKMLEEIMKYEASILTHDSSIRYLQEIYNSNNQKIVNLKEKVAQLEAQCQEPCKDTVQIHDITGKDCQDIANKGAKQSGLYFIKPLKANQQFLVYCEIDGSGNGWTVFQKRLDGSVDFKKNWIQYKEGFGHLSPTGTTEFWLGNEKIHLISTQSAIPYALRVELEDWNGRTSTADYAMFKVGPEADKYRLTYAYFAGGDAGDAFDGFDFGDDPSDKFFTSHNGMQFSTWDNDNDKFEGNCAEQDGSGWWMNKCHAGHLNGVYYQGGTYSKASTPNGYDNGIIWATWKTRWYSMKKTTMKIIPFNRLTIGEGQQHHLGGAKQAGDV
The test is described as above. The conditions noted are these: both partners purified.

The target in test [6] is T1, human aortic elastin. The test is described as follows: ELISA; solid-phase binding: elastin (50 μg/ml), fibrinogen (10 μg/ml) or fibronectin (10 μg/ml) coated on microtitre wells; purified rFnBPB N23 in PBS added, 37°C for 2 hr; bound protein detected with anti-hexahistidine monoclonal antibody 7E8. The conditions noted are these: both partners purified. (In general: ELISA stands for enzyme-linked immunosorbent assay.)

Test [7] concerns the target T2, human fibrinogen. The description is as above. The conditions noted are these: both partners purified.

On to “recombinant FnBPB N23 isotype VII from S. aureus strain 233 (domain or fragment)”, for which the EC50 (usually the concentration that produces a half-maximal response) came to 900 nM in test [1], 500 nM with human fibrinogen (human) and 1500 nM in test [2].
For “recombinant FnBPB N23 isotype IV from S. aureus strain P1 (domain or fragment)”, in that order: 900 nM, 500 nM and 1500 nM.
On the same counts, the results for “recombinant FnBPB N23 isotype II from S. aureus strain N315 (domain or fragment)” are 900 nM, 500 nM and 1500 nM.
For “recombinant FnBPB N23 isotype V from S. aureus strain 2 (domain or fragment)”, in that order: 900 nM, 500 nM and 1500 nM.
Consider “recombinant FnBPB N23 isotype III from S. aureus strain MSSA476 (domain or fragment)”, for which the values for the EC50 (in test [1]; with human fibrinogen (human); in test [2]) were 900 nM, 500 nM and 1500 nM, respectively.
As for “recombinant FnBPB N23 isotype I (residues 162-480) from S. aureus strain 8325-4 (from UniProt A0A0H2XKG3 162-480) (domain or fragment)”, in test [3], the Kd (usually the free concentration of one partner at which half of the binding sites on the other are occupied at equilibrium, for simple one-to-one binding) was determined as 2500 nM. The molecule further registered an EC50 in test [2] of 1500 nM.
In the case of “recombinant FnBPB N23 isotype VI from S. aureus strain 3077 (domain or fragment)”, the EC50 in test [1] came to 900 nM; with human fibrinogen (human), 500 nM; in test [2], 1500 nM.

B1: recombinant FnBPB N23 isotype I (residues 162-480) from S. aureus strain 8325-4 (domain or fragment)
chain: TGTDVTNKVEVEEGSEIVGHKQDTNVVNPHNAERVTLKYKWKFGEGIKAGDYFDFTLSDNVETHGISTLRKVPEIKSTDGQVMATGEIIGERKVRYTFKEYVQEKKDLTAELSLNLFIDPTTVTQKGNQNVEVKLGETTVSKIFNIQYLGGVRDNWGVTANGRIDTLNKVDGKFSHFAYMKPNNQSLSSVTVTGQVTKGNKPGVNNPTVKVYKHIGSDDLAESVYAKLDDVSKFEDVTDNMSLDFDTNGGYSLNFNNLDQSKNYVIKYEGYYDSNASNLEFQTHLFGYYNYYYTSNLTWKNGVAFYSNNAQGDGKDKLK
notes: cloned BamHI/SmaI into pQE30 with a 3' stop codon; also called rN23 isotype I; rN23 type I; source: E. coli TOPP 3, pQE30, purified (Ni2+ chelate chromatography); not shown: His6, N-terminal, kept
Take B1: the results for the Kd in the test with human aortic elastin [4] and with human fibrinogen [5] were 3200 nM and 2000 nM, respectively. Further, the EC50 was approximately 900 nM in the test with human aortic elastin [6] and approximately 500 nM with human fibrinogen [7].
